Measurements taken from patent US20250186597A1, “TARGETED IMMUNE ACTIVATION WITH IL-18 IMMUNOCYTOKINES” (BRIGHT PEAK THERAPEUTICS AG, priority 2023, published 2025).

T1: human IL-18BP (Homo sapiens, UniProt O95998)
T1 construct: His
T1 sequence (O95998 31-194): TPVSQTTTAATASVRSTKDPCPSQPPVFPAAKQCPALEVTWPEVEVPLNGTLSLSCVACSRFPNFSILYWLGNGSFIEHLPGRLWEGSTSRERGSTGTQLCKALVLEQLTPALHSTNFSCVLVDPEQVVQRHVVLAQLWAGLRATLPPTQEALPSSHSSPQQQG


Experiments:
[1] = tested on: NK-92 cells; assay: IL-18 binding protein inhibition cellular assay in NK-92 cells (Example 4, used in Example 22C); type: cell-based, human; conditions: inhibition by IL-18BP of IFNg stimulation in NK92 cells
Method: The NK cell line NK-92 derived from a patient with lymphoma (ATCC® CRL-2407™) is cultured in aMEM medium supplemented with 20% FCS-Glutamax, 25 µM B-mercaptoethanol, and 100 IU/mL of recombinant human IL-2.
On the day of experiment, cells are harvested and washed with aMEM medium without IL-2 and containing 1 ng/mL of recombinant human IL-12. After counting, the cells are seeded at 100,000 cells/well in a 384 well titer plate and incubated at 37° C./5% CO2. Sixteen 2-fold serial dilutions of Fc-fused human IL-18 binding protein isoform a (IL-18BPa) are prepared in aMEM medium. 1 ng/mL of IL-12 containing 2 nM of each IL-18 polypeptide variant is added to the NK-92 cells. The final IL-18 analyte concentration is 1 nM, and the final IL-18BPa concentration ranged from 566 nM to […].
After incubating the cells for 16-20 hr at 37° C./5% CO2, 5 μL of the supernatant is carefully transferred to a 384 microwell OptiPlate. IFNγ levels are measured using a human IFNγ AlphaLISA Assay Kit. Briefly, 10 μL of 2.5× AlphaLISA anti-IFNγ acceptor beads and biotinylated antibody anti-IFNγ mix are added to 5 μL of NK-92 supernatants. The mixtures are incubated for 1 hr at room temperature with shaking. Under subdued light, 2.5 μL of 2×SA donor beads are pipetted in each well and incubated for 30 min at room temperature with shaking. AlphaLISA signals are then measured on an EnSpire™ plate reader using 680 nm and 615 nm as excitation and emission wavelengths, respectively. Half maximal inhibitory concentrations (IC50) are calculated based on a variable slope and four parameter analysis using GraphPad PRISM software.
(§1) The experiments described in Example 4 for determination of IFNg stimulation in NK92 cells (and inhibition by IL-18 BP) were performed substantially as described on IL-18 polypeptides in order to assess their activities and their suitability for incorporation into immunocytokine compositions. It is expected that the IL-18 polypeptides provided below would behave analagously to C086 (SEQ ID NO: 30) when incorporated into an immunocytokine composition as those otherwise provided herein.

[2] = tested on: NK-92 cells; assay: IFNγ induction cellular assay in NK-92 cells (Example 4, used in Example 22C); type: cell-based, human; conditions: IFNg stimulation in NK92 cells
Method: The ability of immunocytokines and IL-18 polypeptides provided herein are assessed for ability to induce IFN[…] in a cellular assay according to the protocol below.
The NK cell line NK-92 derived from a patient with lymphoma (ATCC® CRL-2407™) is cultured in aMEM medium supplemented with 20% FCS, Glutamax, 25 µM B-mercaptoethanol, and 100 IU/mL of recombinant human IL-2.
On the day of experiment, cells are harvested and washed with aMEM medium without IL-2 and containing 1 ng/mL of recombinant human IL-12. After counting, cells are seeded at 100,000 cells/well in a 384 well titer plate and incubated at 37° C./5% CO2. Sixteen 4-fold serial dilutions of IL-18 analytes are prepared in aMEM medium, and 1 ng/mL of IL-12 were added to the NK-92 cells. Final IL-18 analyte concentrations range from 56 nM to 5×10^−5 pM.
After incubating the cells for 16-20 hr at 37° C./5% CO2, 5 μL of supernatant is carefully transferred to a 384 microwell OptiPlate. IFNγ levels are measured using a human IFNγ AlphaLISA Assay Kit. Briefly, 10 μL of 2.5× AlphaLISA Anti-IFNγ acceptor beads and biotinylated antibody anti-IFNγ mix are added to the 5 μL of NK-92 supernatants. The mixtures are incubated for 1 hr at room temperature with shaking. Under subdued light, 2.5 μL of 2× streptavidin (SA) donor beads are pipetted into each well, and the wells are incubated for 30 min at room temperature with shaking. AlphaLISA signals are then measured on an EnSpire™ plate reader using 680 nm and 615 nm as excitation and emission wavelengths, respectively. Half maximal effective concentrations (EC50) are calculated based on a variable slope and four parameter analysis using GraphPad PRISM software.
as §1

[3] = biological target: T1, human IL-18BP; assay: IL-18BP binding alphaLISA assay (Example 4, used in Example 22B); conditions: IL-18BP AlphaLISA
Method: A human IL-18BP AlphaLISA Assay Kit is used to determine the binding affinity of each immunocytokine and IL-18 variant for IL-18BP, which detected the presence of free form IL-18BP.
Sixteen three-fold serial dilutions of IL-18 analytes are prepared in aMEM medium supplemented with 20% FCS, Glutamax, and 25 µM β-mercaptoethanol in the presence of 5 ng/mL of His-tagged human IL-18BP. Final IL-18 analytes concentration range from 2778 nM to […].
After 1 hr incubation at room temperature, free IL-18BP levels are measured using a […]. In a 384 well OPTIplate, 5 μL of 5× Anti-IL-18BP acceptor beads are added to 7.5 μL of an IL-18/IL-18BP mix. After 30 min incubation at room temperature with shaking, 5 μL of biotinylated Anti-IL-18BP antibodies are added to each well. The plate is incubated further for 1 hr at room temperature. Under subdued light, 12.5 μL of 2× streptavidin (SA) donor beads are pipetted into each well, and the wells are incubated with shaking for an additional 30 min at room temperature. The AlphaLisa signal is then measured on an Enspire plate reader with 680 and 615 nm as excitation and emission wavelengths, respectively. The dissociation constant (KD) is calculated based on a variable slope, four parameter analysis using GraphPad PRISM software.
An IL-18 binding protein AiphaLISA experiment substantially as described in Example 4 was performed on IL-18 polypeptide which can be incorporated into immunocytokine compositions as provided herein to assess ability to bind to IL-181BP. It is expected that the IL-18 polypeptides provided below would behave analogously to C086 (SEQ ID NO: 30) when incorporated into an immunocytokine composition as those otherwise provided herein.

Molecule | IC50 [1] [nM] | EC50 [2] [nM] | Kd [3] [nM]
C156: IL-18 polypeptide: V11I, C38A, N41A, K53A, C76A, C127A (protein) YFGKLESKLSIIRNLNDQVLFIDQGNRPLFEDMTDSDARDAAPRTIFIISMYADSQPRGMAVTISVKCEKISTLSAENKIISFKEMNPPDNIKDTKSDIIFFQRSVPGHDNKMQFESSSYEGYFLAAEKERDLFKLILKKEDELGDRSIMFTVQNED | 0.681 | 0.558 | 18.5
C161: IL-18 polypeptide: K8R, V11I, C38A, C76A, Q103E, C127A (protein) YFGKLESRLSIIRNLNDQVLFIDQGNRPLFEDMTDSDARDNAPRTIFIISMYKDSQPRGMAVTISVKCEKISTLSAENKIISFKEMNPPDNIKDTKSDIIFFERSVPGHDNKMQFESSSYEGYFLAAEKERDLFKLILKKEDELGDRSIMFTVQNED | 1.07 | 0.057 | 0.06
C160: IL-18 polypeptide: V11I, C38A, K53A, C76A, D110A, C127A (protein) YFGKLESKLSIIRNLNDQVLFIDQGNRPLFEDMTDSDARDNAPRTIFIISMYADSQPRGMAVTISVKCEKISTLSAENKIISFKEMNPPDNIKDTKSDIIFFQRSVPGHANKMQFESSSYEGYFLAAEKERDLFKLILKKEDELGDRSIMFTVQNED | 3.18 | 0.028 | 0.71
C157: IL-18 polypeptide: V11I, C38A, K53A, C76A, C127A, D132A (protein) YFGKLESKLSIIRNLNDQVLFIDQGNRPLFEDMTDSDARDNAPRTIFIISMYADSQPRGMAVTISVKCEKISTLSAENKIISFKEMNPPDNIKDTKSDIIFFQRSVPGHDNKMQFESSSYEGYFLAAEKERALFKLILKKEDELGDRSIMFTVQNED | 6.08 | 0.056 | 13.7
34 (protein) YFGKLKSKLSVIRNLNDQVLFIDQGNRPLFEDMTDSDCRDNAPRTIFIISMYADAQPRGMAVTISVKCEKISTLSCENKIISFKEMNPPDNIKDTKSDIIFFQRSVPGHDNKMQFESSSYEGYFLACEKERDLFKLILKKEDELGDRSIMFTVQNED | 229 | 0.824 | > 1500
C158: IL-18 polypeptide: V11I, C38A, K53A, C76A, G108A, C127A (protein) YFGKLESKLSIIRNLNDQVLFIDQGNRPLFEDMTDSDARDNAPRTIFIISMYADSQPRGMAVTISVKCEKISTLSAENKIISFKEMNPPDNIKDTKSDIIFFQRSVPAHDNKMQFESSSYEGYFLAAEKERDLFKLILKKEDELGDRSIMFTVQNED | 3.98 | 0.073 | 1.24
C159: IL-18 polypeptide: V11I, C38A, K53A, C76A, H109A, C127A (protein) YFGKLESKLSIIRNLNDQVLFIDQGNRPLFEDMTDSDARDNAPRTIFIISMYADSQPRGMAVTISVKCEKISTLSAENKIISFKEMNPPDNIKDTKSDIIFFQRSVPGADNKMQFESSSYEGYFLAAEKERDLFKLILKKEDELGDRSIMFTVQNED | 1.81 | 0.123 | 0.55

Now from value to molecule:

IC50 [1] [nM] | EC50 [2] [nM] | Kd [3] [nM] | Molecule
7.29 | 0.061 | 0.85 | C162: IL-18 polypeptide: K8E, V11I, C38A, C76A, Q103R, C127A (protein) YFGKLESELSIIRNLNDQVLFIDQGNRPLFEDMTDSDARDNAPRTIFIISMYKDSQPRGMAVTISVKCEKISTLSAENKIISFKEMNPPDNIKDTKSDIIFFRRSVPGHDNKMQFESSSYEGYFLAAEKERDLFKLILKKEDELGDRSIMFTVQNED
0.885 | 0.176 | 0.15 | C165: IL-18 polypeptide: V11I, C38A, S55R, C76A, C127A (protein) YFGKLESKLSIIRNLNDQVLFIDQGNRPLFEDMTDSDARDNAPRTIFIISMYKDRQPRGMAVTISVKCEKISTLSAENKIISFKEMNPPDNIKDTKSDIIFFQRSVPGHDNKMQFESSSYEGYFLAAEKERDLFKLILKKEDELGDRSIMFTVQNED
0.44 | 0.098 | 0.02 | C166: IL-18 polypeptide: V11I, C38A, S55T, C76A, C127A (protein) YFGKLESKLSIIRNLNDQVLFIDQGNRPLFEDMTDSDARDNAPRTIFIISMYKDTQPRGMAVTISVKCEKISTLSAENKIISFKEMNPPDNIKDTKSDIIFFQRSVPGHDNKMQFESSSYEGYFLAAEKERDLFKLILKKEDELGDRSIMFTVQNED
0.823 | 0.093 | 0.05 | C163: IL-18 polypeptide: V11I, C38A, C76A, Q103K, C127A (protein) YFGKLESKLSIIRNLNDQVLFIDQGNRPLFEDMTDSDARDNAPRTIFIISMYKDSQPRGMAVTISVKCEKISTLSAENKIISFKEMNPPDNIKDTKSDIIFFKRSVPGHDNKMQFESSSYEGYFLAAEKERDLFKLILKKEDELGDRSIMFTVQNED
0.456 | 0.414 | 0.08 | C164: IL-18 polypeptide: V11I, C38A, S55H, C76A, C127A (protein) YFGKLESKLSIIRNLNDQVLFIDQGNRPLFEDMTDSDARDNAPRTIFIISMYKDHQPRGMAVTISVKCEKISTLSAENKIISFKEMNPPDNIKDTKSDIIFFQRSVPGHDNKMQFESSSYEGYFLAAEKERDLFKLILKKEDELGDRSIMFTVQNED
